Assay [1] deals with T1, Mm_Fpr2 (Mus musculus, UniProt O88536).
T1 construct: expressed in transfected cells
T1 sequence (O88536 1-351): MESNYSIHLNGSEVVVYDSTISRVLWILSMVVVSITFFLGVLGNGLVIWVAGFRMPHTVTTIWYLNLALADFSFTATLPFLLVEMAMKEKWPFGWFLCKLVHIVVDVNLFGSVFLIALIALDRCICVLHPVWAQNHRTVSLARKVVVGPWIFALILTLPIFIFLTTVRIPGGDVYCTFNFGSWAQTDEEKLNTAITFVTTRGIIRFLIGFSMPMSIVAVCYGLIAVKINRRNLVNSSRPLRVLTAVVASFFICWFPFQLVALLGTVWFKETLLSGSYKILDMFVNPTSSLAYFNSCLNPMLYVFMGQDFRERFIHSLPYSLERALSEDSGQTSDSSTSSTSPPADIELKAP
The assay is described as follows: BRET receptor-RLuc8 interaction with Arrestin 3-YFP. In kind it is cell-based. The protocol:
(§1) BRET1 assays to measure FPR interaction with Venus-mGsi and Arrestin 3-yellow fluorescent protein (YFP) were performed as previously described.[31]^,[32] Briefly, all FPRs C-terminally fused to Renilla Luciferase (donor, RLuc8) were transiently transfected along with either Venus-mGsi or YFP-Arrestin 3 (acceptor) at a ratio of 1:4. 24 hours post transfection, cells were replated into white-walled, 96-well plates and cultured for a further 24–48 hours. On the day of experimentation, growth media was aspirated and replaced with 80 μl Hanks Buffered Saline Solution and equilibrated for 30 minutes. Coelenterazine h was added to each well to a final concentration of 5 μM for 5 minutes before the addition of each compound, and the plate was incubated for a further 10 minutes at 37 °C before being read on a ClarioStar Plus, with luminescence measured at 480/20 nm (donor) and 530/20 (acceptor). The BRET ratio (acceptor/donor) was determined, and the background (untreated) subtracted to give the N-BRET value.
(§2) All data were analyzed using GraphPad Prism using the nonlinear regression log(agonist) versus response (3 parameters) function for all assays, except binding, which was analyzed using the One site-FitlogIC50 function. Bias calculations were carried out following IUPHAR guidelines as described,[27]^,[37] and data were presented as the Δ Activity ratio (Log[EmaxB/EC50B])-(Log[EmaxA/EC50A]).
(In BRET a luciferase serves as donor, and the signal depends on an acceptor being close.)

Assay [2] concerns the target T2, Hs_FPR2 (Homo sapiens, UniProt P25090).
T2 construct: expressed in transfected cells
T2 sequence (P25090 1-351): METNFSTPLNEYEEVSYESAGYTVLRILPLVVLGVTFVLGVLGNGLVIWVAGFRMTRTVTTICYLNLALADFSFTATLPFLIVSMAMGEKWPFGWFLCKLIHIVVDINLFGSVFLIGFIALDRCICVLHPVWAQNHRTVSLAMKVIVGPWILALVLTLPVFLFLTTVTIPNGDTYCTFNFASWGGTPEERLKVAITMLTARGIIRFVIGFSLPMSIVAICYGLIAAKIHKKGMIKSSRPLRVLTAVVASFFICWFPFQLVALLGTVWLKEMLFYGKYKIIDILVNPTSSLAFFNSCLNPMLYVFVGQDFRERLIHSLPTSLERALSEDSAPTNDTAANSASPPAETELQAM
The description is as above. It is filed as cell-based. The protocol: as §1, §2

For assay [3], the target named is T3, Mm_Fpr1 (Mus musculus, UniProt P33766).
T3 construct: expressed in transfected cells
T3 sequence (P33766 1-364): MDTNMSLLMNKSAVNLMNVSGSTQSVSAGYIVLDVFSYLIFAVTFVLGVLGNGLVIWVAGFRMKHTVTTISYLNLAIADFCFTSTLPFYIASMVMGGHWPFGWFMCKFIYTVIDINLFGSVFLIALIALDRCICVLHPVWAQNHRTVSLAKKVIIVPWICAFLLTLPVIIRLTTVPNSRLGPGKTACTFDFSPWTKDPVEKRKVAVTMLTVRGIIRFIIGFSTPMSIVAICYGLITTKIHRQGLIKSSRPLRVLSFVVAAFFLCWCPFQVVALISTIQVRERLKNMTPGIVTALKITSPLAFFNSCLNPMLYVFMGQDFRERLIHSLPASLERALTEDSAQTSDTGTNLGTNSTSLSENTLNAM
The description is as above. It is filed as cell-based. Here is the method: as §1, §2

The target of assay [4] is T4, Hs_FPR1 (Homo sapiens, UniProt P21462).
T4 construct: expressed in transfected cells
T4 sequence (P21462 1-350): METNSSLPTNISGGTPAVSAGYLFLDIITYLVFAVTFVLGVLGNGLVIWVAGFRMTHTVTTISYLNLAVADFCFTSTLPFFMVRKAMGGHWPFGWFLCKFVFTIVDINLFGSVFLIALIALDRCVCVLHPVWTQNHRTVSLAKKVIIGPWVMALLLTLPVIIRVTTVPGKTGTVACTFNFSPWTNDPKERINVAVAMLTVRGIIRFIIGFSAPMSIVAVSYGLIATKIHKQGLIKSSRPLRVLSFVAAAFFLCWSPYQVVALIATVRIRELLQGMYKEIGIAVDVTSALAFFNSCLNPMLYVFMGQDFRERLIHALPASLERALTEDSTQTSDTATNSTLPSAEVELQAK
The assay is described as above. It is filed as cell-based. Here is the method:
as §1, §2

Assay [5] deals with T1, Mm_Fpr2. Briefly: BRET receptor-RLuc8 interaction with Venus-mGsi. It is filed as cell-based. Here is the method:
as §1, §2

Assay [6] has as its target T2, Hs_FPR2. Briefly: BRET receptor-RLuc8 interaction with Venus-mGsi. It is filed as cell-based. The protocol: as §1, §2
For assay [7], the target named is T3, Mm_Fpr1. Briefly: BRET receptor-RLuc8 interaction with Venus-mGsi. It is filed as cell-based. The protocol:
as §1, §2

Assay [8] addresses T4, Hs_FPR1. Briefly: BRET receptor-RLuc8 interaction with Venus-mGsi. It is filed as cell-based. Here is the method:
as §1, §2

For assay [9], the system named is FPR1. The following applies: at 100 nM; cited from earlier work.
The target in assay [10] is T3, Mm_Fpr1. Briefly: Internalization of FLAG-tagged receptors by flow cytometry. In kind it is cell-based. The following applies: Mm_Fpr1, 30 min, relative to 1 μM WKYMVm. Here is the method:
Internalization of FPRs was measured by flow cytometry.[30] Briefly, cells were incubated with Alexa Fluor 657 conjugated M1 antiflag antibody (Sigma-Aldrich Cat# F3040, RRID:AB_439712) for 30 minutes at 37 °C to label surface receptors. Cells were then incubated with the indicated concentration of ligand before washing in PBS/0.04% EDTA to remove any remaining surface antibody. Remaining fluorescence was then measured using flow cytometry on either a BD FACScalibur or Attune, recording 5000 gated events. […] As a control, some samples were left untreated, and “strip only” was measured as a readout of constitutive endocytosis, and this value was subtracted from the data. Vehicle control (0.1% DMSO) had no effect on internalization of receptors.
as §2
(Flow cytometry measures light scatter and fluorescence of single cells or particles in a stream.)

Assay [11] deals with formyl peptide receptor family (Hs_FPR1, Hs_FPR2, Mm_Fpr1, Mm_Fpr2). Briefly: Summary of main findings: receptor subtype selectivity and ligand bias across all readouts. Also noted: species or system human and mouse. The following applies: summary grade of ligand bias relative to WKYMVm; key not given. An excerpt:
To determine ligand bias, a reference ligand is required, that is, “balanced” for the pathways tested.[37] […] We then used measurements of the activity ratio (Log (Emax/EC50)) for each receptor, ligand, and pathway in an attempt to observe any ligand bias (Fig. 6).

Assay [12] addresses T1, Mm_Fpr2. The assay is described as follows: ERK1/2 phosphorylation by Western blotting. It is filed as cell-based. Here is the method: (§3) ERK phosphorylation was detected by Western blotting as previously described.[30] Briefly, HEK293 cells stably expressing FLAG-tagged FPRs were plated into 12-well culture plates until 90% confluent. On the day of the experiment, culture media was replaced with serum-free Dulbecco’s modified Eagle’s medium and incubated for 2 hours before stimulation with the indicated compounds. After 7 minutes, the media was removed and stimulation terminated by the addition of 100 μl sample buffer (0.5% SDS, Tris (pH 6.8), glycerol, at >90 °C).
as §2
In general terms: A western blot detects proteins with antibodies after separation by electrophoresis.

The target in assay [13] is T2, Hs_FPR2. The assay is described as follows: ERK1/2 phosphorylation by Western blotting. In kind it is cell-based. Here is the method: as §3, §2
Assay [14] has as its target T3, Mm_Fpr1. The assay is described as follows: ERK1/2 phosphorylation by Western blotting. In kind it is cell-based. Here is the method: as §3, §2
Assay [15] concerns the target T4, Hs_FPR1. The assay is described as follows: ERK1/2 phosphorylation by Western blotting. In kind it is cell-based. Here is the method:
as §3, §2

Assay [16] deals with T5, FLAG-tagged mouse Fpr2 (Mm_Fpr2) (mouse, UniProt O88536 1-351).
T5 sequence (looked up): T1 sequence (O88536 1-351)
The assay is described as follows: cell-based or functional assay.

Assay [17] has as its target T6, FLAG-tagged human FPR2 (Hs_FPR2) (human, UniProt P25090 1-351).
T6 sequence (looked up): T2 sequence (P25090 1-351)
The assay is described as follows: cell-based or functional assay.

Assay [18] addresses T5, FLAG-tagged mouse Fpr2 (Mm_Fpr2). The assay is described as follows: flow cytometry on cells; competition binding: HEK293 cells stably expressing the receptor, lifted in PBS, on ice 90 min with 10 nM K(5/6-FAM)-WKYMVm and increasing unlabeled ligand; mean fluorescence of 5000 cells as % of that without competitor; One site-Fit logIC50.
In assay [19] the target is T6, FLAG-tagged human FPR2 (Hs_FPR2). The assay is described as above.
Assay [20] concerns the target T5, FLAG-tagged mouse Fpr2 (Mm_Fpr2). Briefly: cell-based or functional assay. The source holds these as a separate data set.
Assay [21] has as its target T6, FLAG-tagged human FPR2 (Hs_FPR2). The assay is described as follows: cell-based or functional assay. This is another data set of the same source.
The target in assay [22] is T7, FLAG-Mm_Fpr2 C-terminally fused to Renilla Luciferase 8 (mouse, UniProt O88536 1-351).
T7 sequence (looked up): T1 sequence (O88536 1-351)
Briefly: cell-based or functional assay.

Assay [23] deals with T8, FLAG-Hs_FPR2 C-terminally fused to Renilla Luciferase 8 (human, UniProt P25090 1-351).
T8 sequence (looked up): T2 sequence (P25090 1-351)
The assay is described as follows: cell-based or functional assay.

Assay [24] deals with T7, FLAG-Mm_Fpr2 C-terminally fused to …. The assay is described as follows: cell-based or functional assay. The source holds these as a separate data set.
In assay [25] the target is T8, FLAG-Hs_FPR2 C-terminally fused to …. The assay is described as follows: cell-based or functional assay. The source holds these as a separate data set.

What is called Emax is the maximal effect, on the per cent scale that the assay sets.

Where no end group is shown, it is not given here. The star is where a group is joined. Palmitoyl = CCCCCCCCCCCCCCCC(=O)*

For the molecule `CSCC[C@H](NC(=O)[C@@H](NC(=O)[C@H](CCSC)NC(=O)[C@H](Cc1ccc(O)cc1)NC(=O)[C@H](CCCCN)NC(=O)[C@@H](N)Cc1c[nH]c2ccccc12)C(C)C)C(N)=O` [WKYMVM], the Emax in assay [1] turned out to be 94.3%; in assay [2], 94.8%; in [3] it was 83.1%; in [4] it was 75%; in assay [5], 87.9%; in [6], 79.2%. In addition, the Emax in assay [7] turned out to be 37.5%; in [8], 44.1%. The “arrestin recruitment to FPR1, Pathhunter” value in assay [9] is reported as “neither WKYMVM nor ACT-389949 resulted in recruitment”. The “agonist-induced internalization (words)” value in [10] was “full agonists”. Also, in assay [11], the Bias entry is “No”. Further, the Emax at 1 µM in assay [12] worked out at 128%; in assay [13], 125%; in assay [14] it was 118%; in assay [15] it was 141%.

B1: F2Pal10 (Pal-Pal-KIHKKGMIKS) (peptide)
peptide: {Palmitoyl-Palmitoyl}-KIHKKGMIKS
notes: Pal is printed twice; the text speaks of N-terminal palmitoylation as the last step of the synthesis; also called pepducin; source: synthetic peptide (Fmoc solid phase, purified by preparative RP-HPLC)
For B1, in [16], the “ERK1/2 phosphorylation (Western blot): Emax (% of 1 μM WKYMVm)” value was 141% and the “ERK1/2 phosphorylation (Western blot): Log EC50 (M)” value was -7.27 log M. Further, in [17], the “ERK1/2 phosphorylation (Western blot): Emax (% of 1 μM WKYMVm)” value was 80.8% and the “ERK1/2 phosphorylation (Western blot): Log EC50 (M)” value is -7.47 log M. Moreover, in [18], the “Log IC50” value was -5.38 log M and the “Max Comp (%)” value is 100%. Besides, in assay [19], the “Log IC50” value was -5.27 log M and the “Max Comp (%)” value was 100%. Moreover, in assay [20], the “receptor internalization (flow cytometry): Emax (% of 1 μM WKYMVm)” value is 12.3% and the “receptor internalization (flow cytometry): Log EC50 (M)” value was -10.5 log M. Further, the “TruPath BRET: dissociation of Gαi2 from β3γ9, EC50 (receptor not given)” value in assay [21] was 130 nM. In assay [22], the “BRET of receptor-RLuc8 with Arrestin 3-YFP: Emax (% of 1 μM WKYMVm)” value came out at 33.4% and the “BRET of receptor-RLuc8 with Arrestin 3-YFP: Log EC50 (M)” value is -6.58 log M. In addition, in assay [23], the “BRET of receptor-RLuc8 with Arrestin 3-YFP: Emax (% of 1 μM WKYMVm)” value stood at 25.5% and the “BRET of receptor-RLuc8 with Arrestin 3-YFP: Log EC50 (M)” value was -6.55 log M. Moreover, in assay [24], the “BRET of receptor-RLuc8 with Venus-mGsi: Emax (% of 1 μM WKYMVm)” value was found to be 24.2% and the “BRET of receptor-RLuc8 with Venus-mGsi: Log EC50 (M)” value was -6.78 log M. For the same molecule, in assay [25], the “BRET of receptor-RLuc8 with Venus-mGsi: Emax (% of 1 μM WKYMVm)” value was 19.4% and the “BRET of receptor-RLuc8 with Venus-mGsi: Log EC50 (M)” value was -6.78 log M.
